Measurements reported in patent US20170015742A1 (published 2017).

T1: Human VEGF-A 111 (human, UniProt P15692-10 27-137)
T1 construct: not used because the names differ; also called hVEGF111
T1 sequence (looked up): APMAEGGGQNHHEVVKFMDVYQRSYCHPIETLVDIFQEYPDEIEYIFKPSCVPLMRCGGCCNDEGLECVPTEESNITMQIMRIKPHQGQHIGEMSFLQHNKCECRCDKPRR

T2: Human VEGF-A 121 (human, UniProt P15692 207-395)
T2 construct: also called hVEGF121
T2 sequence: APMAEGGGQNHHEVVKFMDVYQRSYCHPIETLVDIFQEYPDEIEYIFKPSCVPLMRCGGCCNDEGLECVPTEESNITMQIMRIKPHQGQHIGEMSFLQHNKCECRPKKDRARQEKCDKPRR


Key:
[1] = biological target: recombinant human PDGF-BB (human, UniProt P01127 82-190); assay: cell-based or functional assay
Sequence of recombinant human PDGF-BB (P01127 82-190 limits assumed): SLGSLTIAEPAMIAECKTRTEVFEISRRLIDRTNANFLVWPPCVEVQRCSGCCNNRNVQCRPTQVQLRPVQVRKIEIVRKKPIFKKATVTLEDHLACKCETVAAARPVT

[2] = biological target: recombinant human VEGF165 (human, UniProt P15692 207-395); assay: cell-based or functional assay
rat PDGF-B (PR-1645048) = biological target: T3, rat PDGF-B (PR-1645048) (rat, UniProt Q05028 74-182); assay: SPR (Biacore), DVD-Ig captured by anti-human Fc, antigen injected
T3 construct: Lot 2235300; also called rat PDGF-BB; ratPDGF-BB
T3 sequence (Q05028 74-182 limits assumed): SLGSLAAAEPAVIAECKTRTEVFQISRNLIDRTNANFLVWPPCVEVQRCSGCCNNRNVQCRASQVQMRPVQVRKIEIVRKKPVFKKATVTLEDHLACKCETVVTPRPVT
Description: (§1) Unreacted moieties on the biosensor surface were blocked with ethanolamine. For kinetic analysis, rate equations derived from the 1:1 Langmuir binding model were fitted simultaneously to multiple antigen injections (using global fit analysis) with the use of Scrubber 2 (BioLogic Software), Biacore Biaevaluation 4.0.1 software or Biacore T100 Evaluation software. Purified antibodies or DVD-Ig molecules were diluted in running buffer for capture across goat anti-human Fc reaction surfaces. Antibodies or DVD-Ig molecules to be captured as a ligand (1 μg/ml) were injected over reaction matrices at a flow rate of 10 μl/minute. During the assay, all measurements were referenced against the capture surface alone (i.e., with no captured antibody or DVD-Ig molecule). […] The equilibrium dissociation constant KD (M) of the reaction between antibodies and the target antigen was then calculated from the kinetic rate constants by the following formula: KD=Koff/Kₒₙ. Binding was recorded as a function of time and kinetic rate constants were calculated. In this assay, on-rates as fast as 10⁶M⁻¹s⁻¹ and off-rates as slow as 10⁻⁶ s⁻¹ could be measured.

Human PDGF-BB, soluble = biological target: T4, Human PDGF-BB, soluble (human, UniProt P01127 82-190); assay: SPR (Biacore), summary table
T4 construct: also called hPDGF-BB; soluble PDGF-BB
T4 sequence (P01127 82-190 limits assumed): as the sequence (P01127 82-190 limits assumed) above
Description: as §1

Human VEGF-A 111 = biological target: T1, Human VEGF-A 111; assay: SPR (Biacore), summary table
Description: as §1

Human VEGF-A 121 = biological target: T2, Human VEGF-A 121; assay: SPR (Biacore), summary table
Description: as §1

Human VEGF-A 165 = biological target: T5, Human VEGF-A 165 (human, UniProt P15692 207-395); assay: SPR (Biacore), summary table
T5 construct: also called hVEGF165
Description: as §1

| Potency IC50 (pM), Human PDGF-BB, cellular assay [1] [pM] | Potency IC50 (pM), Human VEGF-A, cellular assay [2] [pM] | Kd (rat PDGF-B (PR-1645048)) [nM] | koff (rat PDGF-B (PR-1645048)) [s⁻¹] | kon (rat PDGF-B (PR-1645048)) [M⁻¹ s⁻¹] | Kd (Human PDGF-BB, soluble) [nM] | Kd (Human VEGF-A 111) [nM] | Kd (Human VEGF-A 121) [nM] | Kd (Human VEGF-A 165) [nM] | Binder |
| --- | --- | --- | --- | --- | --- | --- | --- | --- | --- |
| 34 | 145 | – | – | – | – | – | – | – | hu VEGF 9E10.1-GS-hu PDGF 33675 [hu IgG1/k] LALA H435A (PR-1610561) (bispecific antibody) heavy: EIQLVQSGSELKKPGASVKVSCKASGYTFTNYGMYWVKQAPGQGLEYMGWIDTETGRPTYADDFKGRFVFSLDTSVSTAYLQISSLKAEDTAVYFCARWSGDTTGIRGPWFAYWGQGTLVTVSSGGGGSGGGGSEVTLRESGPALVKPTQTLTLTCTFSGFSLSTYGMGVGWIRQPPGKALEWLANIWWDDDKYYNPSLKNRLTISKDTSKNQVVLTMTNMDPVDTATYYCARIESSGPKYSFDYWGQGTMVTVSSASTKGPSVFPLAPSSKSTSGGTAALGCLVKDYFPEPVTVSWNSGALTSGVHTFPAVLQSSGLYSLSSVVTVPSSSLGTQTYICNVNHKPSNTKVDKKVEPKSCDKTHTCPPCPAPEAAGGPSVFLFPPKPKDTLMISRTPEVTCVVVDVSHEDPEVKFNWYVDGVEVHNAKTKPREEQYNSTYRVVSVLTVLHQDWLNGKEYKCKVSNKALPAPIEKTISKAKGQPREPQVYTLPPSREEMTKNQVSLTCLVKGFYPSDIAVEWESNGQPENNYKTTPPVLDSDGSFFLYSKLTVDKSRWQQGNVFSCSVMHEALHNAYTQKSLSLSPGK light: DIRMTQSPSSLSASVGDRVTIECLASEDIYSDLAWYQQKPGKSPKLLIYNANGLQNGVPSRFSGSGSGTDYSLTISSLQPEDVATYFCQQYNYFPGTFGQGTKLEIKGGSGGGGSGGEIVLTQSPGTLSLSPGERATLSCRASSGSIWYSFVSWYQQKPGQAPRLLIYADDQRASGIPDRFSGSGSGTDFTLTISRLEPEDFAVYYCQSYGINIDVVFGGGTKVEIKRTVAAPSVFIFPPSDEQLKSGTASVVCLLNNFYPREAKVQWKVDNALQSGNSQESVTEQDSKDSTYSLSSTLTLSKADYEKHKVYACEVTHQGLSSPVTKSFNRGEC |
| – | – | ≤ 0.0052 | 5.2e-05 | ≥ 1e+07 | 0.005 | 0.29 | 0.23 | 0.065 | 9E10.1-GS-33675 anti-VEGF/anti-PDGF DVD-Ig molecule (PR-1610561) (bispecific antibody, human IgG1, kappa, L234A L235A, DVD-Ig: outer domain hBEW-9E10.1 (VEGF), inner domain CL-33675 (PDGF), linkers GS-H10 / GS-L10(dR); human IgG1 L234A, L235A, H435A / kappa; Lot 2213329; also called hu VEGF 9E10.1-GS-hu PDGF 33675 [hu IgG1/k]; LALA H435A) heavy: EIQLVQSGSELKKPGASVKVSCKASGYTFTNYGMYWVKQAPGQGLEYMGWIDTETGRPTYADDFKGRFVFSLDTSVSTAYLQISSLKAEDTAVYFCARWSGDTTGIRGPWFAYWGQGTLVTVSSGGGGSGGGGSEVTLRESGPALVKPTQTLTLTCTFSGFSLSTYGMGVGWIRQPPGKALEWLANIWWDDDKYYNPSLKNRLTISKDTSKNQVVLTMTNMDPVDTATYYCARIESSGPKYSFDYWGQGTMVTVSSASTKGPSVFPLAPSSKSTSGGTAALGCLVKDYFPEPVTVSWNSGALTSGVHTFPAVLQSSGLYSLSSVVTVPSSSLGTQTYICNVNHKPSNTKVDKKVEPKSCDKTHTCPPCPAPEAAGGPSVFLFPPKPKDTLMISRTPEVTCVVVDVSHEDPEVKFNWYVDGVEVHNAKTKPREEQYNSTYRVVSVLTVLHQDWLNGKEYKCKVSNKALPAPIEKTISKAKGQPREPQVYTLPPSREEMTKNQVSLTCLVKGFYPSDIAVEWESNGQPENNYKTTPPVLDSDGSFFLYSKLTVDKSRWQQGNVFSCSVMHEALHNAYTQKSLSLSPGK light: DIRMTQSPSSLSASVGDRVTIECLASEDIYSDLAWYQQKPGKSPKLLIYNANGLQNGVPSRFSGSGSGTDYSLTISSLQPEDVATYFCQQYNYFPGTFGQGTKLEIKGGSGGGGSGGEIVLTQSPGTLSLSPGERATLSCRASSGSIWYSFVSWYQQKPGQAPRLLIYADDQRASGIPDRFSGSGSGTDFTLTISRLEPEDFAVYYCQSYGINIDVVFGGGTKVEIKRTVAAPSVFIFPPSDEQLKSGTASVVCLLNNFYPREAKVQWKVDNALQSGNSQESVTEQDSKDSTYSLSSTLTLSKADYEKHKVYACEVTHQGLSSPVTKSFNRGEC |
